We go through one variant from IntAct's records for PubMed 15023544.

B1: 14-3-3 protein zeta/delta (Homo sapiens), P63104 (parent)
chain: MDKNELVQKAKLAEQAERYDDMAACMKSVTEQGAELSNEERNLLSVAYKNVVGARRSSWRVVSSIEQKTEGAEKKQQMAREYREKIETELRDICNDVLSLLEKFLIPNASQAESKVFYLKMKGDYYRYLAEVAAGDDKKGIVDQSQQAYQEAFEISKKEMQPTHPIRLGLALNFSVFYYEILNSPEKACSLAKTAFDEAIAELDTLSEESYKDSTLIMQLLRDNLTLWTSDTQGDEAEAGEGGEN

In this assay the parent is B1. Conditions: with m3k5_human MAP3K5, Q99683.
Chain of m3k5_human MAP3K5, Q99683 (Q99683 whole entry): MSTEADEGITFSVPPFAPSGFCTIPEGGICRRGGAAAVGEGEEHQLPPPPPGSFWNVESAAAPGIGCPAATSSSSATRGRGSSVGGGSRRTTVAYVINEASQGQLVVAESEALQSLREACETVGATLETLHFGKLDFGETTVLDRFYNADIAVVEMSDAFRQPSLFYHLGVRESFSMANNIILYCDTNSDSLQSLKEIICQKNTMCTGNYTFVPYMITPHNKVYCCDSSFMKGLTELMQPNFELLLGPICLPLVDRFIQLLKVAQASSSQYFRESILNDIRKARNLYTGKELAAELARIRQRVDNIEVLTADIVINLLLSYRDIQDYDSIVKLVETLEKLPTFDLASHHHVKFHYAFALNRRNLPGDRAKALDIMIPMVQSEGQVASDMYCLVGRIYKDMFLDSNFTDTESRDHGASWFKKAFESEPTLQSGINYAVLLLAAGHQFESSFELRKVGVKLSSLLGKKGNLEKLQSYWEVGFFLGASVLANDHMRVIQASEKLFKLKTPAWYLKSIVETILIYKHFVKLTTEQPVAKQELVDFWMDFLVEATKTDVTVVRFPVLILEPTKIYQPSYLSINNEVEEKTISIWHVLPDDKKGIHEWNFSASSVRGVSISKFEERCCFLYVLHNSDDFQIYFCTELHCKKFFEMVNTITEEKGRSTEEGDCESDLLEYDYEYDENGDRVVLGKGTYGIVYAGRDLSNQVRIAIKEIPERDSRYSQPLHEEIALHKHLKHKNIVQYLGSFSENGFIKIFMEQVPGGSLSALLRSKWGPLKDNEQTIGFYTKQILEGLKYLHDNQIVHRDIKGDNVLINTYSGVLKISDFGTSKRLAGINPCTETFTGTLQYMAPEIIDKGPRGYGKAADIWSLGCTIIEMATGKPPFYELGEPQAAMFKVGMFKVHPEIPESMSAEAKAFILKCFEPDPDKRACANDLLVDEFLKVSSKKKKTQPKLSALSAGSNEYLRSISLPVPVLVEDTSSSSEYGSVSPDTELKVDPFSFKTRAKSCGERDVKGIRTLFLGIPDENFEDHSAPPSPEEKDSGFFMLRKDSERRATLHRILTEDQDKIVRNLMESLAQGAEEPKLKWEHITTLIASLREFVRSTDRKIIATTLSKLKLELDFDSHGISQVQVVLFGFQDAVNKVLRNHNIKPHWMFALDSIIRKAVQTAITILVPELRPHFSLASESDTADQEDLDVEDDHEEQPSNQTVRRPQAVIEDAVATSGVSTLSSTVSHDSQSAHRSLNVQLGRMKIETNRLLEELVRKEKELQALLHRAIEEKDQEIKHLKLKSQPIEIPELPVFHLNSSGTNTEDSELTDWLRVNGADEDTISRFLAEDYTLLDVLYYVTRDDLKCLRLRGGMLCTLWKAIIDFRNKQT
With MDKNELVQKAKLAEQAERYDDMAACMKSVTEQGAELSNEERNLLSVAYENVVGARESSWEVVSSIEQKTEGAEKKQQMAREYREKIETELRDICNDVLSLLEKFLIPNASQAESKVFYLKMKGDYYRYLAEVAAGDDKKGIVDQSQQAYQEAFEISKKEMQPTHPIRLGLALNFSDFYYEILNSPEKACSLAKTAFDEAIAELDTLSEESYKDSTLIMQELRDNLTLWTSDTQGDEAEAGEGGEN [K49E;R56E;R60E;V176D;L220E], the “effect of a mutation on the interaction” value is listed as “decreasing interaction”.
